We go through 74 substances from patent US12281147.

One may read the Kd as the constant that tells how readily two partners part at equilibrium. Read a low Kd as tighter binding.

For assay [1], the target named is human IL-21R (human) (UniProt Q9HBE5). Put plainly: AlphaSeq yeast mating assay, pH 5 media.
Assay [2] shares this target. Briefly: AlphaSeq yeast mating assay, pH 7 media.
Assay [3] has the same target. Put plainly: AlphaSeq yeast mating assay, pH 6 media.

Regarding “IL-21_D33P (from UniProt Q9HBE4 32-152) (ligand)”, the Kd in assay [1] came out at 40 µM.

With “IL-21_D33R (from UniProt Q9HBE4 32-152) (ligand)”, the Kd in assay [2] was 0.14 µM; in assay [1], 26 µM. As to “IL-21_D44G (from UniProt Q9HBE4 32-152) (ligand)”, the Kd in assay [3] came to 0.05 µM; in assay [2] it was 0.2 µM. For “IL-21_D44T (from UniProt Q9HBE4 32-152) (ligand)”, the Kd in assay [3] came to 0.044 µM; in assay [2], 0.16 µM; in assay [1] it was 0.35 µM. “IL-21_D66M (from UniProt Q9HBE4 32-152) (ligand)”: the Kd in assay [2] is 0.026 µM; in assay [1], 0.055 µM. On to “IL-21_E59R (from UniProt Q9HBE4 32-152) (ligand)”, for which the values for the Kd in assay [3], in assay [2] and in assay [1] were 1.5 µM, 0.34 µM and 41 µM, respectively.

As for “IL-21_E72L (from UniProt Q9HBE4 32-152) (ligand)”, the Kd in assay [2] came to 0.16 µM; in assay [1], 0.047 µM.

Take “IL-21_F76D (from UniProt Q9HBE4 32-152) (ligand)”: the dissociation constant (Kd) in assay [3] was found to be 55 µM.

Regarding “IL-21_F76H (from UniProt Q9HBE4 32-152) (ligand)”, the Kd is 14 µM in assay [3], 9.2 µM in assay [2] and 79 µM in assay [1]. As for “IL-21_F76P (from UniProt Q9HBE4 32-152) (ligand)”, the results for the Kd in assay [3] and in assay [1] were 41 µM and 250 µM, respectively. With “IL-21_F76Q (from UniProt Q9HBE4 32-152) (ligand)”, the Kd in assay [3] stood at 50 µM; in assay [2], 63 µM. In turn, “IL-21_F79K (from UniProt Q9HBE4 32-152) (ligand)” came in with a Kd in assay [3] of 5.5 µM. As to “IL-21_F79P (from UniProt Q9HBE4 32-152) (ligand)”, the values for the Kd in assay [3] and in assay [2] were 7.8 µM and 3.3 µM, respectively. As for “IL-21_F79R (from UniProt Q9HBE4 32-152) (ligand)”, the Kd in assay [3] amounted to 4.4 µM; in assay [2] it was 4.5 µM; in assay [1], 65 µM. For “IL-21_F79T (from UniProt Q9HBE4 32-152) (ligand)” the same measures were 3.3 µM, 1.4 µM and 92 µM.

Consider “IL-21_I37N (from UniProt Q9HBE4 32-152) (ligand)”, for which the Kd was determined as 0.33 µM in assay [2] and 33 µM in assay [1].

As to “IL-21_I37R (from UniProt Q9HBE4 32-152) (ligand)”, the Kd in assay [3] amounted to 0.17 µM; in assay [2], 0.2 µM. The substance “IL-21_I43P (from UniProt Q9HBE4 32-152) (ligand)” registered a Kd in assay [1] of 330 µM.

Regarding “IL-21_I43S (from UniProt Q9HBE4 32-152) (ligand)”, the results for the Kd in assay [3] and in assay [1] were 1.1 µM and 43 µM, respectively. The matching figures for “IL-21_I45D (from UniProt Q9HBE4 32-152) (ligand)”: 0.19 µM and 20 µM. The substance “IL-21_I45H (from UniProt Q9HBE4 32-152) (ligand)” gave a Kd in assay [3] of 6.2 µM.

Turning to “IL-21_I45N (from UniProt Q9HBE4 32-152) (ligand)”, the Kd in assay [2] amounted to 1 µM. In the case of “IL-21_I45P (from UniProt Q9HBE4 32-152) (ligand)”, the Kd in assay [1] came out at 100 µM. For “IL-21_I45S (from UniProt Q9HBE4 32-152) (ligand)”, the Kd is 0.11 µM in assay [3], 0.16 µM in assay [2] and 15 µM in assay [1]. “IL-21_I45Y (from UniProt Q9HBE4 32-152) (ligand)” registered a Kd in assay [3] of 12 µM. That is a double-digit micromolar value.

With “IL-21_I95P (from UniProt Q9HBE4 32-152) (ligand)”, the results for the Kd in assay [3] and in assay [1] were 3.6 µM and 64 µM, respectively.

Turning to “IL-21_I96G (from UniProt Q9HBE4 32-152) (ligand)”, in assay [3], the Kd was 52 µM. “IL-21_I96T (from UniProt Q9HBE4 32-152) (ligand)” displayed a Kd in assay [3] of 66 µM. Regarding “IL-21_I100E (from UniProt Q9HBE4 32-152) (ligand)”, the equilibrium dissociation constant (Kd) in assay [3] was 78 µM. Same read-out and setting: in the case of “IL-21_K104G (from UniProt Q9HBE4 32-152) (ligand)” it was 0.079 µM.

For “IL-21_K106S (from UniProt Q9HBE4 32-152) (ligand)”, the Kd in assay [1] is 7.3 µM. Regarding “IL-21_L42D (from UniProt Q9HBE4 32-152) (ligand)”, the Kd in assay [3] came out at 14 µM; in assay [1], 1600 µM. “IL-21_L42E (from UniProt Q9HBE4 32-152) (ligand)” yielded a Kd in assay [2] of 26 µM. “IL-21_L42G (from UniProt Q9HBE4 32-152) (ligand)”: in assay [3], the dissociation constant Kd turned out to be 32 µM.

As for “IL-21_L42N (from UniProt Q9HBE4 32-152) (ligand)”, the Kd was determined as 26 µM in assay [3] and 0.95 µM in assay [2]. The substance “IL-21_L42R (from UniProt Q9HBE4 32-152) (ligand)” yielded a Kd in assay [1] of 150 µM. Consider “IL-21_L42S (from UniProt Q9HBE4 32-152) (ligand)”, for which the Kd in assay [2] was 11 µM. As for “IL-21_L42Y (from UniProt Q9HBE4 32-152) (ligand)”, the results for the Kd in assay [3], in assay [2] and in assay [1] were 0.011 µM, 0.021 µM and 0.043 µM, respectively. “IL-21_L49H (from UniProt Q9HBE4 32-152) (ligand)” had a Kd in assay [1] of 160 µM. “IL-21_L49N (from UniProt Q9HBE4 32-152) (ligand)” returned a Kd in assay [1] of 170 µM.

Regarding “IL-21_L49P (from UniProt Q9HBE4 32-152) (ligand)”, the Kd is 55 µM in assay [3] and 330 µM in assay [1]. As to “IL-21_L49S (from UniProt Q9HBE4 32-152) (ligand)”, in assay [1], the Kd was found to be 240 µM. Take “IL-21_L56N (from UniProt Q9HBE4 32-152) (ligand)”: the figures for the dissociation constant (Kd) in assay [2] and in assay [1] were 9.7 µM and 72 µM, respectively.

Turning to “IL-21_L56S (from UniProt Q9HBE4 32-152) (ligand)”, the results for the Kd in assay [3] and in assay [2] were 46 µM and 44 µM, respectively. For “IL-21_L61H (from UniProt Q9HBE4 32-152) (ligand)”, the Kd in assay [2] was determined as 0.024 µM; in assay [1], 0.12 µM. In the case of “IL-21_L120M (from UniProt Q9HBE4 32-152) (ligand)”, the dissociation constant Kd in assay [3] is 0.036 µM; in assay [2] it was 0.056 µM; in assay [1], 0.052 µM. As to “IL-21_M39Q (from UniProt Q9HBE4 32-152) (ligand)”, in assay [3], the Kd came to 83 µM. In the case of “IL-21_N51G (from UniProt Q9HBE4 32-152) (ligand)”, the Kd worked out at 0.044 µM in assay [2] and 0.11 µM in assay [1]. For “IL-21_N70A (from UniProt Q9HBE4 32-152) (ligand)” the same measures were 0.094 µM and 0.033 µM. On to “IL-21_P108G (from UniProt Q9HBE4 32-152) (ligand)”, for which, in assay [1], the Kd was found to be 11 µM. This counts as double-digit micromolar. In assay [2], “IL-21_P108Q (from UniProt Q9HBE4 32-152) (ligand)” came in with a Kd of 0.11 µM. This lies in the sub-micromolar range. In the case of “IL-21_P108T (from UniProt Q9HBE4 32-152) (ligand)”, the Kd in assay [2] stood at 1.1 µM; in assay [1], 57 µM. With “IL-21_P132A (from UniProt Q9HBE4 32-152) (ligand)”, the Kd amounted to 0.024 µM in assay [3] and 0.12 µM in assay [2]. With “IL-21_Q41K (from UniProt Q9HBE4 32-152) (ligand)”, the Kd stood at 7.2 µM in assay [2] and 150 µM in assay [1].

As to “IL-21_Q41P (from UniProt Q9HBE4 32-152) (ligand)”, the equilibrium dissociation constant (Kd) in assay [3] came out at 35 µM. That is a double-digit micromolar value. As for “IL-21_Q48K (from UniProt Q9HBE4 32-152) (ligand)”, the figures for the Kd in assay [3] and in assay [1] were 0.2 µM and 11 µM, respectively.

“IL-21_Q80A (from UniProt Q9HBE4 32-152) (ligand)” displayed a Kd in assay [3] of 12 µM.

Regarding “IL-21_Q150S (from UniProt Q9HBE4 32-152) (ligand)”, the dissociation constant Kd in assay [2] was 0.12 µM; in assay [1], 0.043 µM.

As to “IL-21_R34A (from UniProt Q9HBE4 32-152) (ligand)”, the equilibrium dissociation constant (Kd) in assay [1] worked out at 0.36 µM.

With “IL-21_R34N (from UniProt Q9HBE4 32-152) (ligand)”, the figures for the Kd in assay [3] and in assay [1] were 0.052 µM and 0.96 µM, respectively. Consider “IL-21_R38A (from UniProt Q9HBE4 32-152) (ligand)”, for which the Kd in assay [1] is 15 µM. Consider “IL-21_R38M (from UniProt Q9HBE4 32-152) (ligand)”, for which the Kd in assay [3] stood at 1.2 µM; in assay [2], 2 µM. Regarding “IL-21_R105D (from UniProt Q9HBE4 32-152) (ligand)”, the Kd in assay [1] was 170 µM.

With “IL-21_V46N (from UniProt Q9HBE4 32-152) (ligand)”, in assay [3], the Kd turned out to be 37 µM. This counts as double-digit micromolar. Take “IL-21_V53Q (from UniProt Q9HBE4 32-152) (ligand)”: the Kd is 0.16 µM in assay [3] and 0.2 µM in assay [2]. “IL-21_V57H (from UniProt Q9HBE4 32-152) (ligand)”: the Kd in assay [3] stood at 0.024 µM; in assay [1], 1.6 µM. For the substance “IL-21_V57M (from UniProt Q9HBE4 32-152) (ligand)”, the values for the Kd in assay [2] and in assay [1] were 0.025 µM and 0.057 µM, respectively. “IL-21_V57P (from UniProt Q9HBE4 32-152) (ligand)” gave a dissociation constant (Kd) in assay [2] of 3 µM. Regarding “IL-21_V57T (from UniProt Q9HBE4 32-152) (ligand)”, the Kd is 0.078 µM in assay [2] and 0.17 µM in assay [1]. With “IL-21_V57Y (from UniProt Q9HBE4 32-152) (ligand)”, the Kd in assay [3] stood at 0.016 µM; in assay [1], 0.046 µM. Regarding “IL-21_V98R (from UniProt Q9HBE4 32-152) (ligand)”, the Kd in assay [1] came to 0.046 µM. For the substance “IL-21_W73N (from UniProt Q9HBE4 32-152) (ligand)”, the values for the Kd in assay [3] and in assay [1] were 3.4 µM and 65 µM, respectively. With “IL-21_W73S (from UniProt Q9HBE4 32-152) (ligand)”, the Kd in assay [2] came to 0.34 µM; in assay [1], 39 µM.

On to “IL-21_W73V (from UniProt Q9HBE4 32-152) (ligand)”, for which the Kd in assay [3] stood at 6.5 µM; in assay [1], 110 µM.
